Consider 2 molecules from PMC6486636, “LARP4A recognizes polyA RNA via a novel binding mechanism mediated by disordered regions and involving the PAM2w motif, revealing interplay between PABP, LARP4A and mRNA”.

In data set [1] the target is T1, LARP4A NTR (Homo sapiens, UniProt Q71RC2 1-111). The experiment in a line: MST; 25 C; agrees with EMSA; Kd only in figure; EMSA: 20 mM Tris pH 7.25, 200 mM KCl, 5% glycerol, 1 mM DTT, 0.1 mg/ml BSA, 0.01 mg/ml E. coli tRNA, on ice, gel at 4 C; MST: 20 mM Tris pH 7.25, 100 mM KCl, 0.2 mM EDTA, 1 mM DTT, 0.05% Tween-20, 25 C. The settings on record: protein: recombinant; tags: His (TEV) or His-SUMO, cleaved; label: 5' fluorescein (FAM); single strand.

Data set [2] has as its target T2, LARP4A NTD (Homo sapiens, UniProt Q71RC2 1-287). The data set is described as above. The settings on record: protein: recombinant; tags: His tag (TEV) or His-SUMO, cleaved; label: 5' fluorescein (FAM); single strand.
In data set [3] the target is T1, LARP4A NTR. The experiment in a line: EMSA; with competitor tRNA; retains majority of affinity; Kd only in figure; EMSA: 20 mM Tris pH 7.25, 200 mM KCl, 5% glycerol, 1 mM DTT, 0.1 mg/ml BSA, 0.01 mg/ml E. coli tRNA, on ice, gel at 4 C; MST: 20 mM Tris pH 7.25, 100 mM KCl, 0.2 mM EDTA, 1 mM DTT, 0.05% Tween-20, 25 C. The settings on record: protein: recombinant; tags: His (TEV) or His-SUMO, cleaved; label: 5' 32P (EMSA); unlabelled (NMR, native MS); single strand. A general note: In EMSA bound probe runs differently from free probe, usually more slowly.

A further data set addresses LARP4A La module (Homo sapiens, UniProt Q71RC2 111-287). The experiment in a line: NMR; small shifts, almost exclusively RRM1; 100 mM KCl; EMSA: 20 mM Tris pH 7.25, 200 mM KCl, 5% glycerol, 1 mM DTT, 0.1 mg/ml BSA, 0.01 mg/ml E. coli tRNA, on ice, gel at 4 C; MST: 20 mM Tris pH 7.25, 100 mM KCl, 0.2 mM EDTA, 1 mM DTT, 0.05% Tween-20, 25 C. The settings on record: protein: recombinant; tags: His tag, TEV-cleaved; label: 5' 32P (EMSA); unlabelled (NMR, native MS); single strand.

A further data set deals with LARP4A 1-79 (Homo sapiens, UniProt Q71RC2 1-79). The experiment in a line: EMSA; up to 200 uM protein; EMSA: 20 mM Tris pH 7.25, 200 mM KCl, 5% glycerol, 1 mM DTT, 0.1 mg/ml BSA, 0.01 mg/ml E. coli tRNA, on ice, gel at 4 C; MST: 20 mM Tris pH 7.25, 100 mM KCl, 0.2 mM EDTA, 1 mM DTT, 0.05% Tween-20, 25 C. The note with it: protein: recombinant; tags: His-SUMO, cleaved; label: 5' 32P (EMSA); unlabelled (NMR, native MS); single strand.

Another data set addresses T3, LARP4A 1-50 (Homo sapiens, UniProt Q71RC2 1-50).
T3 chain: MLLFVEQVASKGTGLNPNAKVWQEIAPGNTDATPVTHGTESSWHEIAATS
The data set is described as above. The note with it: protein: recombinant; tags: His-SUMO, cleaved; label: 5' 32P (EMSA); unlabelled (NMR, native MS); single strand.

The target in data set [4] is T2, LARP4A NTD. The experiment in a line: EMSA; with competitor tRNA; low micromolar Kd, >100-fold tighter than La module; value only in figure; EMSA: 20 mM Tris pH 7.25, 200 mM KCl, 5% glycerol, 1 mM DTT, 0.1 mg/ml BSA, 0.01 mg/ml E. coli tRNA, on ice, gel at 4 C; MST: 20 mM Tris pH 7.25, 100 mM KCl, 0.2 mM EDTA, 1 mM DTT, 0.05% Tween-20, 25 C. The settings on record: protein: recombinant; tags: His tag (TEV) or His-SUMO, cleaved; label: 5' 32P (EMSA); unlabelled (NMR, native MS); single strand.

Sequence of LARP4A La module (Q71RC2 111-287): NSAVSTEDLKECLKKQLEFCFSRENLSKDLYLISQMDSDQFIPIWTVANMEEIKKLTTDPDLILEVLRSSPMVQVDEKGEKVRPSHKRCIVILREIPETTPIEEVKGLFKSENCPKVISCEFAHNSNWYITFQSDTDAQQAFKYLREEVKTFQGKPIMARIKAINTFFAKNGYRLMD

As to AAAAAAAAAAAAAAAAAAAA (ssRNA) [5'FAM-oligoA20], the binding result in the data set with LARP4A NTR [1] and with LARP4A NTD [2] was “binds” throughout.

Regarding AAAAAAAAAAAAAAA (ssRNA) [oligoA15], the binding result in the data set with LARP4A NTR [3] is “binds”; with LARP4A La module, “binds”; with LARP4A 1-79, “no binding”; with LARP4A 1-50, “no binding”; with LARP4A NTD [4], “binds”.
